Measured values reported in patent publication US20120141456A1 (Biogen, published 2012).

Tests used:
[1] = biological target: T1, full-length human DR6 on transfected cells (human, UniProt O75509 42-655); test: FACS on 293E cells transfected with full-length human DR6
T1 construct: also called Death Receptor-6; TNFRSF21
T1 sequence: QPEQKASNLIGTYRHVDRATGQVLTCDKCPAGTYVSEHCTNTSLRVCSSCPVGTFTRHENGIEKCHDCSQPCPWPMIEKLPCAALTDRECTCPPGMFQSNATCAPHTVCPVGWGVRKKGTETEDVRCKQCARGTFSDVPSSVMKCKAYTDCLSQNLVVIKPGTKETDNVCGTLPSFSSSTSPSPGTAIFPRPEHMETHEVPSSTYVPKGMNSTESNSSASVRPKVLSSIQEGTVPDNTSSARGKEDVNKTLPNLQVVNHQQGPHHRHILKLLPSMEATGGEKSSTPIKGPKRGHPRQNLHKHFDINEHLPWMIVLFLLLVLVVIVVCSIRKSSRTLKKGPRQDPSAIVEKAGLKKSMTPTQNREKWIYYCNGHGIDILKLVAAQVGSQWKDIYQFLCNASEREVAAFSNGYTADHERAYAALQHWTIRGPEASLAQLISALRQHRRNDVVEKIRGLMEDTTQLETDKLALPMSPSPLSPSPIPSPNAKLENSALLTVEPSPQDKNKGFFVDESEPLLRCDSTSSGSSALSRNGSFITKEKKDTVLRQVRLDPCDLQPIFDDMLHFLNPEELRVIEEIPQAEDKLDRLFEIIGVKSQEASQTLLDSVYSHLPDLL

[2] = biological target: T2, full-length mouse DR6 on transfected cells (mouse, UniProt Q9EPU5 42-655); test: FACS on 293T cells transfected with mouse DR6 (FIG. 13C)
T2 sequence: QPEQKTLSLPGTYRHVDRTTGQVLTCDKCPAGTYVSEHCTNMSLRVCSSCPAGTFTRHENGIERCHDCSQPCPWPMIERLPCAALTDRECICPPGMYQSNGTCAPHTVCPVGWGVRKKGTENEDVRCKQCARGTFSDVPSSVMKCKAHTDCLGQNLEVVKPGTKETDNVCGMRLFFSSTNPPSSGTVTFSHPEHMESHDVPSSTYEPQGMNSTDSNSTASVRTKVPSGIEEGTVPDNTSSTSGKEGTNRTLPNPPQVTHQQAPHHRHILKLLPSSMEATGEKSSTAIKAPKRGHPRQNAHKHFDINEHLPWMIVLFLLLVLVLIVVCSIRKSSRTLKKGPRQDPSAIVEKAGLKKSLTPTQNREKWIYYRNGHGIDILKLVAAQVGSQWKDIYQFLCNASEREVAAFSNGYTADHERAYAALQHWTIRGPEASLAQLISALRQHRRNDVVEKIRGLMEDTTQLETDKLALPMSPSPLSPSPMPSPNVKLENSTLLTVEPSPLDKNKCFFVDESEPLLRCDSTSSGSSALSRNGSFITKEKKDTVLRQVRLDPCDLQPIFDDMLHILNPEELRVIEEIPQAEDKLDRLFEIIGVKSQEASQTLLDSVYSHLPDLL
Description: (§1) Six million HEK293 cells were transfected with 10 ug of plasmid DNA, which encoded full length human, rat, or mouse DR6. Three days after transfection, approximately 50,000 cells in 200 μL of PBS, 1% BSA, 0.1% NaN3 (FACS buffer) were analyzed. Cells were pelleted and resuspended in 150 μl of serial dilutions of anti-DR6 antibodies in FACS buffer. Samples were incubated for 1 hour on ice with occasional agitation and then washed three times. Bound DR6 antibody was visualized with PE-labeled goat F(ab)₂ anti-human Fab (for Dyax Fabs) or anti-mouse IgG specific antibody (for monoclonal antibodies) (Jackson Labs).

[3] = biological target: T1, full-length human DR6 on transfected …; test: FACS on 293T cells transfected with human DR6 (FIG. 13B)
Description: as §1

[4] = biological target: T3, full-length rat DR6 on transfected cells (rat, UniProt D3ZF92 42-655); test: FACS on 293T cells transfected with rat DR6 (FIG. 13A)
T3 construct: whole, on cells
T3 sequence (looked up): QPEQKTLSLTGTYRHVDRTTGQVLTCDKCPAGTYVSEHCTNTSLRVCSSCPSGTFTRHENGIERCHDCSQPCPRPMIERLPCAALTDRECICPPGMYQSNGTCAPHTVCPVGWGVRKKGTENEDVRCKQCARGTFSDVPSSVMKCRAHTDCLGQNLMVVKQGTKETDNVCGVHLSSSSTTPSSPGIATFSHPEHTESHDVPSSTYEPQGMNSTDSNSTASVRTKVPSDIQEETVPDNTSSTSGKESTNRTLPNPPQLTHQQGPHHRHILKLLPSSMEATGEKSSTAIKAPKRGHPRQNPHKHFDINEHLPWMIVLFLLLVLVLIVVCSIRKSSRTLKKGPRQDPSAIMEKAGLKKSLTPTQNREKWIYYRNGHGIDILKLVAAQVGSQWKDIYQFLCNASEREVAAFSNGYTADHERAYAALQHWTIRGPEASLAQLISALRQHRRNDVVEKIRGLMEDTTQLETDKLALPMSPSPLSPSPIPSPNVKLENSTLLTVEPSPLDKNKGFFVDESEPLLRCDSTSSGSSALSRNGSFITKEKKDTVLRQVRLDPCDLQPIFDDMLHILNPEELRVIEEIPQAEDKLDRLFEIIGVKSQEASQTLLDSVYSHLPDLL
Description: as §1

[5] = biological target: T1, full-length human DR6 on transfected …; test: FACS on HEK293 cells transfected with full length human DR6, serial dilutions of antibody
Description: as §1

[6] = biological target: T2, full-length mouse DR6 on transfected …; test: FACS on HEK293 cells transfected with full length mouse DR6, serial dilutions of antibody
Description: as §1

[7] = biological target: T3, full-length rat DR6 on transfected cells; test: FACS on HEK293 cells transfected with full length rat DR6, serial dilutions of antibody
Description: as §1

B1: M63-E10 (Fab, V domains shown)
VH: EVQLLESGGGLVQPGGSLRLSCAASGFTFSQYKMSWVRQAPGKGLEWVSSISSSGGTNYADSVKGRFTISRDNSKNTLYLQMNSLRAEDTAMYYCARRNYGDRPYWYFDLWGRGTLVTVSS
VL: DIQMTQSPSTLSASVGDRVTITCRASQTISRWLAWYQHKPGKAPKLLIYKTSNLESGVPSRFSGSGSGTEFTLTISSLQPDDFATYYCQQYKSYSITFGPGTKVDIK
notes: Human Fab from a phage display library
binding result [1]: binds

B2: M51-H09 (Fab, V domains shown)
VH: EVQLLESGGGLVQPGGSLRLSCAASGFTFSPYSMTWVRQAPGKGLEWVSSIVPSGGKTWYADSVKGRFTISRDNSKNTLYLQMNSLRAEDTAVYYCARTNLSYFDYWGQGTLVTVSS
VL: QSELTQPPSASGSPGQSVTISCTGTSNDVGSYNYISWFQQHPGKAPKLMIYEVNKRPSGVPDRFSGSKSDNTASLTVSGLQAEDEADYYCTSYAGSHKWVFGGGTKLTVL
notes: as for B1
binding result [1]: binds

B3: M73-C04 (Fab, V domains shown)
VH: EVQLLESGGGLVQPGGSLRLSCAASGFTFSPYAMVWVRQAPGKGLEWVSSISPSGGGTGYADSVKGRFTISRDNSKNTLYLQMNSLRAEDTAVYYCAREGWNYYYGMDVWGQGTTVTVSS
VL: DIQMTQSPATLSLSPGERATLSCRASQSVSSYLAWYQQKPGQAPRLLIYDASNRATGIPARFSGSGSGTDFTLAISSLQPEDSATYYCLQDFIYPYTFGQGTKLEIR
notes: as for B1
binding result [1]: binds

B4: M50-H01 (Fab, V domains shown)
VH: EVQLLESGGGLVQPGGSLRLSCAASGFTFSDYPMMWVRQAPGKGLEWVSRISPSGGHTIYADSVKGRFTISRDNSKNTLYLQMNSLRAEDTAVYYCAKDWHGGGAFDIWGQGTMVTVSS
VL: DIQMTQSPSSVSASVGDRVTITCRASQGIRSWLAWYQQKPGKAPKLLIYDASTLQSGVPSRFRGGGSGTDFTLTISSLQPEDFATYYCQQSYSTPLTFGGGTKVEIK
notes: as for B1
binding result [1]: binds

B5: M66-B03 (Fab, V domains shown)
VH: EVQLLESGGGLVQPGGSLRLSCAASGFTFSPYWMSWVRQAPGKGLEWVSVIYPSGGHTYYADSVKGRFTISRDNSKNTLYLQMNSLRAEDTAVYYCARPGFGAAFDYWGPGTLVTVSS
VL: DIQMTQSPSSVSASVGDRVTITCRASQGISSWLAWYQQKPGKAPKLLIYAASSLQSGVPSRFSGSGSGTDFTLTISSLQPEDFATYYCQQANSFPLTFGGGTKVEIK
binding result [1]: binds

B6: 1P2F2.1 (antibody, V domains shown)
VH: QVQLQQSGPEVARPGASVKLSCKASGYTFTDYYLNWVKQRTGQGLEWIGEIYPGNNHTYYNEKFKGKATLTADNSSSTAYLQFSSLTSEDSAVYFCTRGVIKWGQGTLVTVSV
VL: DILMTQSPSSMSVSLGDTVSITCHASQGIRNSIGWLQQKPGKSFKGLIYHATTLEDGVPSRFTGSGSGADFSLTISSLESEDFADYYCVQYAQFPYTFGGGTKLEIK
notes: Murine hybridoma monoclonal antibody; subgroup II(A) heavy chain, subgroup V kappa light chain
binding result [2]: binds | binding result [3]: binds | binding result [4]: binds

B7: 1P5D10.2 (antibody, V domains shown)
VH: EVQLVESGGGLVKPGGSLKLSCAASGFTFSDYYMYWVRQTPEKRLEWVATISDGGLYTYYQDSVKGRFTISRDNAKNNLYLQMSSLKSEDTAMYYCAREDDYDGDFYTMDYWGQGTSVTVSS
VL: QIVLTQSPAIMSASPGEKVTITCSASSSVSYMHWFQQKPGTSPKLWIYSTSNLASGVPARFSGSGSGTSYSLTISRMEAEDAATYYCQQRSSYPLTFGAGTKLELK
notes: Murine hybridoma monoclonal antibody; subgroup III(D) heavy chain, subgroup VI kappa light chain
binding result [5]: binds | binding result [6]: binds | binding result [7]: binds

B8: M53-E04 (Fab, V domains shown)
VH: EVQLLESGGGLVQPGGSLRLSCAASGFTFSNYEMSWVRQAPGKGLEWVSSIYSSGGETLYADSVKGRFTISRDNSKNTLYLQMNSLRAEDTAVYYCARDGAADYWGQGTLVTVSS
VL: QSELTQPPSASGTPGQWVTISCSGSTSNIGNNYVYWYQQLPGTAPKLLIYTNNQRPSGVPDRFSGSKSGTSASLAISGLRSEDEADYYCATWDDSLYAPVFGGGTKVTVL
notes: as for B1
binding result [1]: binds

B9: M62-B02 (Fab, V domains shown)
VH: EVQLLESGGGLVQPGGSLRLSCAASGFTFSMYIMNWVRQAPGKGLEWVSSIVSSGGWTFYADSVKGRFTISRDNSKNTLYLQMNSLRAEDTAVYYCARGHYGMDVWGQGTTVTVSS
VL: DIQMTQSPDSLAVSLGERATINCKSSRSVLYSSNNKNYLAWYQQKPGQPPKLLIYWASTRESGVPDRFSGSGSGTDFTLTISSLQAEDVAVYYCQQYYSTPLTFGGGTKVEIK
notes: as for B1
binding result [1]: binds

B10: M72-F03 (Fab, V domains shown)
VH: EVQLLESGGGLVQPGGSLRLSCAASGFTFSQYMMSWVRQAPGKGLEWVSVIYPSGGSTHYADSVKGRFTISRDNSKNTLYLQMNSLRAEDTAVYYCARGHYGMDVWGQGTTVTVSS
VL: DIQMTQSPDSLAVSLGERATINCKSSQSVLYSSNNKNYLAWYQHKAGQPPKLLIHWASSRASGVPDRFSGSGSGTDFTLTISSLQAEDVAVYYCQQFYSLPLTFGGGTKVEIR
notes: as for B1
binding result [1]: binds

B11: M53-F04 (Fab, V domains shown)
VH: EVQLLESGGGLVQPGGSLRLSCAASGFTFSEYTMHWVRQAPGKGLEWVSVISSSGGRTVYADSVKGRFTISRDNSKNTLYLQMNSLRAEDTAVYYCARDLSNYMDYWGQGTLVTVSS
VL: DIQMTQSPATLSLSPGERATLSCRASQTVSNYLAWYQQKPGQAPRLLIYDASNRATGIPARFSGSGSGTDFTLTISSLEPEDFAVYYCQQRSKWLSFGGGTKVEIK
notes: as for B1
binding result [1]: binds

B12: M67-G02 (Fab, V domains shown)
VH: EVQLLESGGGLVQPGGSLRLSCAASGFTFSRYSMQWVRQAPGKGLEWVSVISPSGGSTMYADSVKGRFTISRDNSKNTLYLQMNSLRAEDTAVYYCARESYSSSWYSGYYYYYGMDVWGQGTTVTVSS
VL: DIQMTQSPASLSASVGDRVTITCRASQTIAGYLNWYQQTPGKAPNLLIYDASRLQSGVPSRFSGSGSGTDFTLSISGLQPEDFGTYYCQQSYTIPLTFGGGTKVEIK
notes: as for B1
binding result [1]: binds
